Experimental data taken from patent publication US20110009597A1, “RECOMBINANT GANODERMA LUCIDIUM IMMUNOMODULATORY PROTEIN (rLZ-8) AND USES THEREOF” (priority 2008, published 2011).

Columns and labels:
[1] = tested on: Human Chronic Myelogenous Leukemia K562 Cells; test: Lethal effect of rLZ-8 on K562 cells (MTT, OD570nm); format: cell-based
Description: After sterilization of rLZ-8, we prepared 6 concentrations using IMDM culture medium, which are respectively 3.125 μg·ml^−1, 6.25 μb·ml^−1, 12.5 μg·ml^−, 25 μg·ml^−1, 50 μg·ml^−1, 100 μg·ml^−1.
On 96-orifice culture plate, the pilot aperture plus K562 tumor cells 0.1 ml and rLZ-8 0.1 ml, rLZ-8 concentrations from low to high; negative control group plus K562 tumor cells and culture medium of the 0.1 ml respectively; positive drug control group arsenic trioxide As2O3; make six-aperture multipunches for each group. Placing in 37° C., 5% CO2 incubator 48 h, adding MTT15 μl (5 mg ml^−1) prior to the termination of 4 h, after the termination of cell culture by adding 100 μl 0.1 mol L^−1 hydrochloric acid isopropyl alcohol, testing OD values570nm on the enzyme immunosorbent detector.

NB4 = test: PI single stained flow cytometry, apoptosis of NB4; format: cell-based
Description: Fluorescence microscope, model Leica ASLMD, K562, NB4. rLZ-8 is classified into high, medium and low three-dose groups respectively, now we prepare them with IMDM culture medium containing 2% FCS into the preparation of 2.5 μg·ml^−1, 0.5 μg/ml, 0.1 μg·ml^−1. […] (PI) 50 μg·ml ^−1.
Establish K562 as the normal control group, rLZ-8 low-dose group (0.1 μg·ml^−1), rLZ-8 medium dose group (0.5 μg·ml^−1), rLZ-8 high-dose group, (2.5 μg·ml^−1); set NB4 as the normal control group, rLZ-8 low-dose group (0.1 μg·ml^−1), rLZ-8 medium dose group (0.5 μg·ml^−1), rLZ-8 high-dose group, (2.5 μg·ml^−1).
Mix K562 and NB4 cells into 24-orifice plate respectively, and supply rLZ-8 in different concentrates, 1 ml/orifice, set 3-orifice multipunches for each group. Put them in 37° C., 5% CO2 incubator for 24 h, collect the cells of each concentrate, PBS washes twice and regulates the cell density to 1×10^6/ml, 70% ice ethanol fixation, adjusts to −20° C. and stays overnight. Wash the cells with PBS twice after fixing the cells, add PI (end density 50 μg·ml^−1) for room temperature and lucifuged hatching 10 min, 1000 r·min^−1 centrifuge 5 min, clear supernatant with disposable 400μ. IPBS re-suspension precipitation. And test on computer in 1 h.

WBC = test: Prevention of radiation leucopenia model of mice, WBC; format: in vivo; set-up: unit not given here; details: for WBC, 5th day (rLZ-8): 5th day of administration before radiation; for WBC, 5th day / WBC, 7th day: after 7.5 Gy γ-ray
Description: rLZ-8 preparation of sterile saline. Divide them into 5 μg·kg^−1, 2.5 μg·kg^−1, 1.25 μg·kg^−1, 0.62 μg·kg^−1 dose groups. 0.2 ml/vial.
Genlei™ Scimax™ [Recombinant human granulocyte colony-stimulating factor injection (rhG-CSF)], production lot: 20060403; 150 μg/vial is prepared with sterile normal saline into the preparation of 3.2 μg·kg^−1, 0.2 ml/vial.
The mice were irradiated by 7.5 Gy γ-ray (180 mV, 15 mA) and then divided into seven groups (n=10): (A) negative control; (B) 5 μg·kg−1 dose; (C) 2.5 μg·kg−1 dose; (D) 1.25 μg·kg−1 dose; (E) 0.62 μg·kg−1 dose; (F) positive control (Genlei™ Scimax™); (G) model group. Before modeling 5 days, mice in each group were administered with Genlei™ Scimax™ and rLZ-8 for 5 days, on the 5th day, mice were radiated, for 5 days, and on the 7th day, drew blood from tail, tested the number of WBC, weight spleen, calculated index of spleen.

human erythrocyte = format: cell-based
Description: rLZ-8 prepares 5% of glucose solution into the preparation of 1 mg·ml^−1; blood cell suspension preparation: human blood 4 ml, 1000 r/min centrifugal 10 min, clears supernatant. […] Prepare the obtained erythrocyte with 5% glucose solution into 2% suspension for experiment.
Get 28 clean test tubes and number them, No. 1-5 for rLZ-8 drug group, No.6 for negative control group (5% glucose solution), No. 7 for positive control tube (distilled water), and a total of 4 parallel comparison tubes. By supplying 2% erythrocyte suspension, 5% glucose or distilled water in turn, shaking, put them into incubators 37° C.±0.5° C. immediately for incubation. Observe them every 15 min, 1 h after observe them once for 3 hours. Finishing the observation, put all the solution from the tubes into centrifugal drying tubes, 1500 r, 25 min. Clear the supernatant, read the blank distilled water tube for OD value to calculate the rate of hemolysis.

B1: rLZ-8: Recombinant Ganoderma Lucidum Immune Regulatory Protein expressed in Pichia pastoris (protein, UniProt P14945 2-111, looked up)
Immunomodulatory protein Ling …: SDTALIFRLAWDVKKLSFDYTPNWGRGNPNNFIDTVTFPKVLTDKAYTYRVAVSGRNLGVKPSYAVESDGSQKVNFLEYNSGYGIADTNTIQVFVVDPDTNNDFIIAQWN
lethal effect in vitro on K562 tumor cells (in words) ([1]; 3.125-100 μg·ml^−1): strong lethal effect
Growth inhibition rate (%) ([1]; rLZ-8 3.125 μg ml^−1, 48 h): 34.7%
OD570 nm ([1]; rLZ-8 3.125 μg ml^−1, 48 h): 0.66 ± 0.03
Growth inhibition rate (%) ([1]; rLZ-8 6.25 μg ml^−1, 48 h): 42.6%
OD570 nm ([1]; rLZ-8 6.25 μg ml^−1, 48 h): 0.58 ± 0.03
Growth inhibition rate (%) ([1]; rLZ-8 12.5 μg ml^−1, 48 h): 48.5%
OD570 nm ([1]; rLZ-8 12.5 μg ml^−1, 48 h): 0.52 ± 0.05
Growth inhibition rate (%) ([1]; rLZ-8 25 μg ml^−1, 48 h): 69.3%
OD570 nm ([1]; rLZ-8 25 μg ml^−1, 48 h): 0.31 ± 0.02
Growth inhibition rate (%) ([1]; rLZ-8 50 μg ml^−1, 48 h): 75.2%
OD570 nm ([1]; rLZ-8 50 μg ml^−1, 48 h): 0.25 ± 0.04
Growth inhibition rate (%) ([1]; rLZ-8 100 μg ml^−1, 48 h): 81.2%
OD570 nm ([1]; rLZ-8 100 μg ml^−1, 48 h): 0.19 ± 0.03
Apoptosis rate (NB4; NB4, rLZ-8 0.1 μg·ml^−1, 24 h): 9.23%
Apoptosis rate (NB4; NB4, rLZ-8 0.5 μg·ml^−1, 24 h): 27.51%
Apoptosis rate (NB4; NB4, rLZ-8 2.5 μg·ml^−1, 24 h): 38.60%
WBC, 5th day (rLZ-8) (WBC; rLZ-8 0.62 μg·kg^−1): 10.7 ± 0.45
WBC, 5th day (WBC; rLZ-8 0.62 μg·kg^−1): 0.16 ± 0.31
WBC, 7th day (WBC; rLZ-8 0.62 μg·kg^−1): 0.40 ± 0.12
WBC, 5th day (rLZ-8) (WBC; rLZ-8 1.25 μg·kg^−1): 12.5 ± 0.45
WBC, 5th day (WBC; rLZ-8 1.25 μg·kg^−1): 0.25 ± 0.11
WBC, 7th day (WBC; rLZ-8 1.25 μg·kg^−1): 0.46 ± 0.11
WBC, 5th day (rLZ-8) (WBC; rLZ-8 2.5 μg·kg^−1): 12.8 ± 0.54
WBC, 5th day (WBC; rLZ-8 2.5 μg·kg^−1): 0.32 ± 0.15
WBC, 7th day (WBC; rLZ-8 2.5 μg·kg^−1): 0.45 ± 0.20
WBC, 5th day (rLZ-8) (WBC; rLZ-8 5 μg·kg^−1): 19.5 ± 0.32
WBC, 5th day (WBC; rLZ-8 5 μg·kg^−1): 0.32 ± 0.18
WBC, 7th day (WBC; rLZ-8 5 μg·kg^−1): 0.53 ± 0.35
hmolytic rate (human erythrocyte): < 5%
